In patent US20210238292A1 (VACCINEX, published 2021):
Like-named read-outs stand apart in the source and are kept apart here.

What was measured:
[1] = biological target: T1, mouse CCR8 expressed on 293T cells (mouse, UniProt P56484 1-353); assay: flow cytometry, MoCCR8-293T cells, fold geomean over secondary alone
T1 construct: whole, on cells
T1 sequence (looked up): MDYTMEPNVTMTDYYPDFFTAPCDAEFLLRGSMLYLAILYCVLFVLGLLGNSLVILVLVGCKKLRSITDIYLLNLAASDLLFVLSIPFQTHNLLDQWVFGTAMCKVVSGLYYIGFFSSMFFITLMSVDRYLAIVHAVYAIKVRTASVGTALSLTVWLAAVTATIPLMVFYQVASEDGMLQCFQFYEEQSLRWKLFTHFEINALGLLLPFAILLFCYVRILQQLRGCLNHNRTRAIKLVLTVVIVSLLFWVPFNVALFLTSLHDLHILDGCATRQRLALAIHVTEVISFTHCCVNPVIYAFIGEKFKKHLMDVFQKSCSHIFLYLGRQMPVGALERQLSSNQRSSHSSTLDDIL

[2] = biological target: T2, human CCR8 (C-C chemokine receptor type 8) expressed on cells (human, UniProt P51685 1-355); assay: on-cell affinity, flow cytometry on 293T cells expressing human CCR8
T2 construct: also called HuCCR8
T2 sequence (P51685 whole entry): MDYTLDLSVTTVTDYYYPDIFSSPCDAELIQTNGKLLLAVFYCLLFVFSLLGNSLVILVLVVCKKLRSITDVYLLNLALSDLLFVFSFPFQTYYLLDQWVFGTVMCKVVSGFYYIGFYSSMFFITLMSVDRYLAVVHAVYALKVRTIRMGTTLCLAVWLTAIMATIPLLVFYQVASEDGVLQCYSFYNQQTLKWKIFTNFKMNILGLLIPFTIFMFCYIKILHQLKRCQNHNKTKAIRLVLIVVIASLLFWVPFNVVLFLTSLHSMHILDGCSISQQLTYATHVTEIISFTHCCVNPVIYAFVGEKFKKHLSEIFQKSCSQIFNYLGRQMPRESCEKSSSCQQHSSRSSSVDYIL

Cynomolgus CCR8-ECD-Fc [3] = biological target: T3, Cynomolgus CCR8-ECD-Fc (cynomolgus monkey); assay: binding to CyCCR8-ECD-Fc protein, OD450-570 nm
T3 construct: also called CyCCR8-ECD-Fc; Cynomolgus CCR8-Fc
T3 chain: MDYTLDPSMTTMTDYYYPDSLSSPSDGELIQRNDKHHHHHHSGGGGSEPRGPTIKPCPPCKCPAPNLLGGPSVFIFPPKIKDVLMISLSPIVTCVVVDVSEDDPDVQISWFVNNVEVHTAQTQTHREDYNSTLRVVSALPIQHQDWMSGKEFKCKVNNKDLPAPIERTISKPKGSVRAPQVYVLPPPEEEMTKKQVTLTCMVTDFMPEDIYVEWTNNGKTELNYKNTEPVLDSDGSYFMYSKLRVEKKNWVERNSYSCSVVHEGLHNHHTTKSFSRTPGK

Human CCR8-ECD-Fc [4] = biological target: T4, Human CCR8-ECD-Fc (human); assay: binding to HuCCR8-ECD-Fc protein, OD450-570 nm
T4 construct: also called HuCCR8-ECD-Fc; huCC8-ECD-Fc
T4 chain: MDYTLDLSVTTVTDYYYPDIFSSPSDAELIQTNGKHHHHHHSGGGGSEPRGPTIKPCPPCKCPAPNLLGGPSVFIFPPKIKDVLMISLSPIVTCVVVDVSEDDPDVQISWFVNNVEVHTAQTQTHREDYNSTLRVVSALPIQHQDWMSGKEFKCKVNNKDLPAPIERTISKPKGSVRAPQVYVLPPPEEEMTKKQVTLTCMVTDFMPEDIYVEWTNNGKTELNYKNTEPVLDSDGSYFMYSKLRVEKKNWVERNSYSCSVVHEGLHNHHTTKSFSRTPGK

[5] = biological target: T5, cynomolgus monkey CCR8 expressed on cells (cynomolgus monkey, UniProt G7NYJ2 1-355); assay: on-cell affinity, flow cytometry on 293T cells expressing cyno CCR8
T5 construct: whole, on cells; also called cyno CCR8; CyCCR8

[6] = biological target: T1, mouse CCR8 expressed on 293T cells; assay: flow cytometry, MoCCR8-293T cells, fold geomean over secondary alone; remark: listed apart in the source
Human CCR8-ECD-Fc [7] = biological target: T4, Human CCR8-ECD-Fc; assay: binding to HuCCR8-ECD-Fc protein, OD450-570nm
[8] = biological target: T5, cynomolgus monkey CCR8 expressed on …; assay: on-cell affinity, flow cytometry on 293T cells expressing cyno CCR8; remark: listed apart in the source
Target sequence in this assay (G7NYJ2 entry or part of it): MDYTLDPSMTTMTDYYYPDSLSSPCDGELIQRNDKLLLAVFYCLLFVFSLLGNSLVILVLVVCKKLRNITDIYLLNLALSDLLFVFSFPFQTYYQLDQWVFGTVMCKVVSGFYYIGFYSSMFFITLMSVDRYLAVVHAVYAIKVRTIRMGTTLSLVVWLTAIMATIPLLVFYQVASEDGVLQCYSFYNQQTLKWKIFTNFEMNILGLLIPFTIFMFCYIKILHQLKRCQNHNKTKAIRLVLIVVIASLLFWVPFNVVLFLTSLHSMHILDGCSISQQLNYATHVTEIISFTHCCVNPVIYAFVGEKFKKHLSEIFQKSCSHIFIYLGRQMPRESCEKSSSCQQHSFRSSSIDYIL

[9] = biological target: T2, human CCR8 (C-C chemokine receptor type …); assay: flow cytometry, HuCCR8-293T cells, fold geomean over secondary alone
Cynomolgus CCR8-ECD-Fc [10] = biological target: T3, Cynomolgus CCR8-ECD-Fc; assay: binding to CynoCCR8-ECD-Fc protein, OD450-570nm
[11] = biological target: T2, human CCR8 (C-C chemokine receptor type …); assay: on-cell affinity, flow cytometry on 293T cells expressing human CCR8; remark: listed apart in the source
Human CCR8-ECD-Fc [12] = biological target: T4, Human CCR8-ECD-Fc; assay: binding to HuCCR8-ECD-Fc protein, OD450-570 nm
Cynomolgus CCR8-ECD-Fc [13] = biological target: T3, Cynomolgus CCR8-ECD-Fc; assay: binding to CyCCR8-ECD-Fc protein, OD450-570 nm
[14] = biological target: T1, mouse CCR8 expressed on 293T cells; assay: flow cytometry, MoCCR8-293T cells, fold geomean over secondary alone; remark: listed apart in the source
Cynomolgus CCR8-ECD-Fc [15] = biological target: T3, Cynomolgus CCR8-ECD-Fc; assay: binding to CyCCR8-ECD-Fc protein, OD450-570 nm
[16] = biological target: T1, mouse CCR8 expressed on 293T cells; assay: flow cytometry, MoCCR8-293T cells, fold geomean over secondary alone; remark: listed apart in the source
Human CCR8-ECD-Fc [17] = biological target: T4, Human CCR8-ECD-Fc; assay: binding to HuCCR8-ECD-Fc protein, OD450-570 nm
[18] = biological target: T5, cynomolgus monkey CCR8 expressed on …; assay: flow cytometry, CynoCCR8-293T cells, fold geomean over secondary alone
[19] = biological target: T2, human CCR8 (C-C chemokine receptor type …); assay: flow cytometry, HuCCR8-293T cells, fold geomean over secondary alone; remark: listed apart in the source
[20] = biological target: T1, mouse CCR8 expressed on 293T cells; assay: flow cytometry, MoCCR8-293T cells, fold geomean over secondary alone; remark: listed apart in the source
[21] = biological target: T6, amyloid precursor-like protein 2 (APLP2) (UniProt Q06481 32-763, limits assumed); assay: on-cell Kd, antibody titration on cells expressing APLP2, flow cytometry
T6 construct: whole, on cells
T6 sequence (Q06481 32-763 limits assumed): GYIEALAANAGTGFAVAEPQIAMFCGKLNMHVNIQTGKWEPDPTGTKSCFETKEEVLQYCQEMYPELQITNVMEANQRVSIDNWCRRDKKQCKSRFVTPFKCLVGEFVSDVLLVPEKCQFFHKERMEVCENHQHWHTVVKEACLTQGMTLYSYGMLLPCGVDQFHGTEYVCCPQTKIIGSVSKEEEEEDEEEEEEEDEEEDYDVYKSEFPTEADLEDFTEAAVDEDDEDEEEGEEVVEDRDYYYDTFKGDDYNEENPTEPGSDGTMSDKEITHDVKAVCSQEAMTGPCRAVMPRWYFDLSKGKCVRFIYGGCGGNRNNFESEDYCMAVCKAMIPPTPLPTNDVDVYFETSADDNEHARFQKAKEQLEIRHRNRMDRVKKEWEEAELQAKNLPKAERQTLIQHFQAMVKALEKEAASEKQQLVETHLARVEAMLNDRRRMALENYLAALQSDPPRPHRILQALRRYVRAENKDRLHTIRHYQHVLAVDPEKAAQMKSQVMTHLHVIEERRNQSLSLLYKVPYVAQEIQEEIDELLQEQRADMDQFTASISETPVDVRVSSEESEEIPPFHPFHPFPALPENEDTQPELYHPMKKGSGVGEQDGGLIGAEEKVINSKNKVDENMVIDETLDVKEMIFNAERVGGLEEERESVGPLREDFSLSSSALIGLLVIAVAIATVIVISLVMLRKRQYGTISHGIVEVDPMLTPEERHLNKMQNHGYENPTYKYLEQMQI

[22] = biological target: T2, human CCR8 (C-C chemokine receptor type …); assay: flow cytometry competition on Raji-CCR8 cells; competitor: fluorescently-conjugated BIOLEGEND anti-human CCR8 antibody at a single concentration
Experimental: To characterize the binding cite of the CCR8 antibodies, CCR8 antibodies were incubated with Raji-CCR8 cells in a dose-dependent manner in 96-well plates at 4° C. for 30 min. Unbound CCR8 antibodies were washed away and the cells were incubated with a fluorescently-conjugated human monoclonal anti-CCR8 antibody (commercially available) at a single concentration for 30 min at 37° C. Upon completion of the experiment, the binding of the commercially available monoclonal CCR8 antibody was assessed by Flow Cytometry.

[23] = biological target: T2, human CCR8 (C-C chemokine receptor type …); assay: on-cell affinity, flow cytometry on 293T cells expressing human CCR8; remark: listed apart in the source
Human CCR8-ECD-Fc [24] = biological target: T4, Human CCR8-ECD-Fc; assay: binding to HuCCR8-ECD-Fc protein, OD450-570nm
[25] = biological target: T5, cynomolgus monkey CCR8 expressed on …; assay: on-cell affinity, flow cytometry on 293T cells expressing cyno CCR8; remark: listed apart in the source
Target sequence in this assay (G7NYJ2 entry or part of it): as the sequence (G7NYJ2 entry or part of it) above

Human CCR8-ECD-Fc [26] = biological target: T4, Human CCR8-ECD-Fc; assay: binding to HuCCR8-ECD-moFc protein (so in the source), OD45-570nm (so in the source)
Cynomolgus CCR8-ECD-Fc [27] = biological target: T3, Cynomolgus CCR8-ECD-Fc; assay: binding to CyCCR8-ECD-huFc protein (so in the source), OD45-570nm (so in the source)
[28] = biological target: T1, mouse CCR8 expressed on 293T cells; assay: flow cytometry, mouseCCR8-293T cells, fold geomean over secondary alone

B1: anti-CCR8-2 (antibody, V domains shown)
VH: EVQLLESGGGLVQPGGSLRLSCAAGGFTFSAYTMNWVRQAPGKGLEWVSAISASGGRTYYADSVKGRFTISRDNSKNTLYLQMNSLRAEDTAVYYCARRFARGWFDPWGQGTLVTVSS
VL: QSVLTQPPSVSAAPGQKVTISCSGSSSNIGNNYVSWYQQLPGTAPKLLIYDNNKRPSGIPDRFSGSKSGTSATLGITGLQTGDEADYYCGTWDSSLSAWVFGGGTKLT
notes: Cloned into mammalian expression vectors; human IgG; also called heavy chain H23727
[1]
  binding result: no binding (tested: 10 ug/ml)
[2]
  Kd: 0.41 nM
Cynomolgus CCR8-ECD-Fc [3]
  binding result: binds
Human CCR8-ECD-Fc [4]
  binding result: binds
[5]
  Kd: 0.94 nM

B2: anti-CCR8-2-6 (antibody, V domains shown)
VH: EVQLVESGGGLVQPGRSLRLSCAASGFTFDDYAMHWVRQAPGKGLEWVSGISWNSGSIGYADSVKGRFTISRDNSKNSLYLQMNSLRAEDTALYYCARGRVSYRESLRFDYWGQGTLVT
VL: QSVLTQPPSVSAAPGQKVTISCSGSSSNIGNNYVSWYQQLPGTAPKLLIYDNNKRPSGIPDRFSGSKSGTSATLGITGLQTGDEADYYCGTWDSSLSAWVFGGGTKLT
notes: Human IgG
[6]
  binding result: no binding (tested: 10 ug/ml)
Human CCR8-ECD-Fc [7]
  EC50 (read off the curve): ~0.04 µg/mL
[8]
  Kd: 4.5 nM
[9]
  EC50 (read off the curve): ~2 µg/mL
Cynomolgus CCR8-ECD-Fc [10]
  EC50 (read off the curve): ~0.04 µg/mL
[11]
  Kd: 1.5 nM

B3: anti-CCR8-2-1 (antibody, V domains shown)
VH: EVQLLESGGGLVQPGGSLRLSCAARGFIFSGYTMLWVRQAPGKGLEWVSAITASGGRTYYADSVKGRFTISRDNSKNTLYLQMNSLRAEDTAVYYCARRFARGWFDPWGQGTLVTVSS
VL: QSVLTQPPSVSAAPGQKVTISCSGSSSNIGNNYVSWYQQLPGTAPKLLIYDNNKRPSGIPDRFSGSKSGTSATLGITGLQTGDEADYYCGTWDSSLSAWVFGGGTKLT
notes: Human IgG from a mammalian expression vector
Human CCR8-ECD-Fc [12]
  binding result: binds
Cynomolgus CCR8-ECD-Fc [13]
  binding result: binds
[14]
  binding result: no binding (tested: 10 ug/ml)
[2]
  Kd: 0.54 nM
[5]
  Kd: 1.09 nM

B4: anti-CCR8-2-2 (antibody, V domains shown)
VH: EVQLLESGGGLVQPGGSLRLSCAAGGFTFSAYTMNWVRQAPGKGLEWVSAISASGGRTYYADSVKGRFTISRDNSKNTLYLQMNSLRAEDTAVYYCARRFARGWFDPWGQGTLVT
VL: QSVLTQPPSVSAAPGQRVTISCSGSTSNIGNHYVSWYQQLPRAVPKLVIYDNDKRPSGISDRFSGSRSGTSATLDISGLQAGDEADYYCATWDYSLTAVVFGGGTKLTVL
notes: Heavy chain of anti-CCR8-2 (H23727) cross-paired with a shuffled lambda light chain; Human IgG
Cynomolgus CCR8-ECD-Fc [15]
  binding result: binds
[16]
  binding result: no binding (tested: 10 ug/ml)
Human CCR8-ECD-Fc [17]
  binding result: binds
[2]
  Kd: 0.8 nM
[18]
  EC50 (read off the curve): ~1 µg/mL
[5]
  Kd: 1.6 nM

B5: anti-CCR8-1 (antibody, human IgG1, V domains shown)
VH: QVQLVQSGAEVKKPGASVKVSCKASGYTFTSYYMHWVRQAPGQGLEWMGIINPSGGSTSYAQKFQGRVTMTRDTSTSTVYMELSSLRSEDTAVYYCARAVRNRFRFDYWGQGTLVTVSS
VL: QSALTQPASVSGSPGQSITISCTGTSSDVGSYNLVSWYQQHPGKAPKLMIYEVSKRPSGVSNRFSGSKSGNTASLTISGLQAEDEADYYCSSYAGSSTFVVFGGGTKLTVL
[19]
  EC50 (read off the curve): ~1 µg/mL
[20]
  binding result: no binding (tested: 10 ug/ml)
[21]
  binding result: no binding (tested: 100 nM (top of the affinity axis))
[22]
  IC50 (read off the curve): ~0.02 µg/mL
[23]
  Kd: 0.41 nM
Human CCR8-ECD-Fc [24]
  binding result: binds
[25]
  Kd: > 50 nM

B6: anti-CCR8-1-5 (antibody, V domains shown)
VH: QVQLVQSGAEVKKPGASVKVSCKASGYTFTSYYMHWVRQAPGQGLEWMGIINPSGGSTSYAQKFQGRVTMTRDTSTSTVYMELSSLRSEDTAVYYCARGVGNGFRFDYWGQGTLVT
VL: QSALTQPPSVSGSPGQSITISCSGTSSDVGSYNLVSWYQQEPGKAPKLIIYEVNKRPSGVSNRFSGSKSGNTASLTISGLQAEDEADYHCSSYAGSSTYVVFGGGTKLTVL
notes: Parental-1 heavy chain with a shuffled lambda light chain; Human IgG expressed in CHO cells
Human CCR8-ECD-Fc [26]
  binding result: binds
Cynomolgus CCR8-ECD-Fc [27]
  binding result: binds
[23]
  Kd: 1.36 nM
[28]
  binding result: no binding (tested: 10 ug/ml)
[25]
  Kd: 48.6 nM
